The target of one test is T1, HER2 (Homo sapiens (Human), UniProt P04626 23-652).
T1 construct: also called EGFR HER family protein HER2
The test is described as follows: ELISA, antigen coated at 1 ug/mL, anti-human Fab-HRP detection, A450. (ELISA stands for enzyme-linked immunosorbent assay.)

Another test has as its target T2, HER3 (Homo sapiens (Human), UniProt P21860 20-643).
T2 construct: also called EGFR HER family protein HER3
The test is described as above.

Test [1] concerns the target T3, Mouse EGFR (recombinant, soluble monomeric) (mouse, UniProt Q01279 25-647).
T3 construct: also called murine EGFR
Described as above. The procedure:
(§1) Specificity for EGFR and cMET species paralogs and closely related family members was determined by ELISA. Briefly, antigen solutions were prepared in PBS at 1 μg/mL and 50 microliters was coated onto half area ELISA assay plates. Plates were washed and blocked with 1% BSA in PBS containing 0.005% Tween-20 (PBS-T) for one hour at room temperature. […] Wells were incubated with 50 microliters of the indicated primary antibodies diluted in PBS-T in a 1:3 dilution series, starting at 10 μg/mL and ending at 0.002 ug/mL, except for the HER4 binding mAb control, MAB1131, for which the series started at 1 μg/mL. The wells were washed 4 times in PBS-T, then 50 μl of goat anti-human Fab HRP-labeled secondary antibody, diluted 1:5000 in PBS-T, was added to each well and incubated for one hour at room temperature. […] 50 microliters of TMB stop solution was added to all wells and the absorbance was read at 450 nm on a SpectraMax M5 microplate reader. Data were analyzed in the SoftMax Pro 5 software and plotted using GraphPad Prism 7 graphing software.
(§2) To determine the species cross reactivity, ELISA assays were carried out as described above.

Test [2] deals with T4, Cynomolgus monkey EGFR (recombinant, soluble monomeric) (cynomolgus monkey, UniProt P55245 25-645 (rhesus entry)).
T4 construct: also called cyno EGFR
Described as above. The procedure: as §1, §2

The next test addresses Mouse cMET (recombinant) (mouse, UniProt P16056 25-931, limits assumed). The description is as above. The procedure:
as §1, §2

Test [3] deals with T5, Cynomolgus monkey cMET (recombinant, soluble monomeric) (cynomolgus monkey, UniProt A0M8R7 25-932 (Papio anubis entry)).
T5 construct: also called cyno c-Met
Put plainly: SPR (Biacore T200), antibody captured on anti-human IgG, soluble monomeric antigen as analyte, 25 C. The procedure:
(§3) Mouse anti-human IgG was immobilized on a CM4 sensor chip with a final surface density of ˜2000 resonance units (RUs). A reference flow cell surface was also prepared on this sensor chip using identical immobilization protocol. Test and control article antibodies were prepared at 5-20 nM in instrument buffer (HBS-EP buffer; 0.01M HEPES, pH 7.4, 0.15M NaCl, 3 mM EDTA, and 0.005% P-20), along with 3-fold serial dilutions of purified EGFR (0.27-200 nM human, 0.4-900 nM cyno, and 4-1000 nM murine) or cMET proteins (0.27 to 66 nM human and 0.27-22 nM cyno) in instrument buffer. A sequential approach was utilized for kinetic measurements. Antibodies were first injected over the capture surface, at a flow rate of 10 μL/minute. Once the binding of the captured antibody stabilized, a single concentration of the analyte was injected over both capture and reference surfaces, at a flow rate of 75 μL/minute. The resulting binding response curves yielded the association phase data. Following the injection of analyte, the flow was then switched back to instrument buffer for 15 minutes to permit the collection of dissociation phase data, followed by a 1-minute pulse of 10 mM glycine, pH 1.5, to regenerate the antibody-captured surface on the chip. Binding responses against test and control article antibodies were recorded from duplicate injections of each concentration of analyte. In addition, several buffer injections were interspersed throughout the injection series. Select buffer injections were used along with the reference cell responses to correct the raw data sets for injection artifacts and/or nonspecific binding interactions, commonly referred to as “double referencing”. Corrected binding data were globally fit to a 1:1 binding model (Biacore T200 Evaluation software 2.0, GE Healthcare, Pittsburgh, PA).
(§4) Kinetic measurements to soluble monomeric forms of EGFR and cMET were performed using a BIACore instrument.
A general note: In SPR one partner is held on a chip, and binding of the other changes the refractive index at the surface.

The target of test [4] is T6, Human cMET (recombinant, soluble monomeric) (human, UniProt P08581 25-932).
T6 construct: also called His-tagged cMET antigen
Described as above. The method, then:
as §3, §4

The target of test [5] is T7, Human EGFR (recombinant, soluble monomeric) (human, UniProt P00533 25-645).
T7 construct: also called EGFR antigen; recombinant human EGFR
The test is described as follows: biolayer interferometry (Octet), antibody bound to cMET captured on NI-NTA sensors, then human EGFR.

A further test addresses T8, HER4 (Homo sapiens (Human), UniProt Q15303 26-651).
T8 construct: also called EGFR HER family protein HER4
T8 sequence: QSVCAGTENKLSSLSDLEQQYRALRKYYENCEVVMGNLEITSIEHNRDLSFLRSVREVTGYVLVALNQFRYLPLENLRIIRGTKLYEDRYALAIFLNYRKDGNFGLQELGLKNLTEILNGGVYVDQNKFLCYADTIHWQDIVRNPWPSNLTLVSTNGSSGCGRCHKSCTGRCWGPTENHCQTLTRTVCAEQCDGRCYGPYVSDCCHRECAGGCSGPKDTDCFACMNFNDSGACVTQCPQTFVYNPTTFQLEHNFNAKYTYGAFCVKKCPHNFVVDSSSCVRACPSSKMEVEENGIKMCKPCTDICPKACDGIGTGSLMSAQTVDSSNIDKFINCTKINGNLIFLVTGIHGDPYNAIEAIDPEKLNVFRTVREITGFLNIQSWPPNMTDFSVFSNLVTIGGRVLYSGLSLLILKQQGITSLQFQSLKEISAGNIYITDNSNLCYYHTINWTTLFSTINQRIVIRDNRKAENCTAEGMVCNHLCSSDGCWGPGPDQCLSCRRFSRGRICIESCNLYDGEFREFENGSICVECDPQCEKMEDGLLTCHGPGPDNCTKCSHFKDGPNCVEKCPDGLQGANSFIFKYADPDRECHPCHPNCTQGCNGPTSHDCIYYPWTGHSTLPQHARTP
Put plainly: ELISA, antigen coated at 1 ug/mL, anti-human Fab-HRP detection, A450.

T5 sequence (A0M8R7 25-932 S170N/I621T): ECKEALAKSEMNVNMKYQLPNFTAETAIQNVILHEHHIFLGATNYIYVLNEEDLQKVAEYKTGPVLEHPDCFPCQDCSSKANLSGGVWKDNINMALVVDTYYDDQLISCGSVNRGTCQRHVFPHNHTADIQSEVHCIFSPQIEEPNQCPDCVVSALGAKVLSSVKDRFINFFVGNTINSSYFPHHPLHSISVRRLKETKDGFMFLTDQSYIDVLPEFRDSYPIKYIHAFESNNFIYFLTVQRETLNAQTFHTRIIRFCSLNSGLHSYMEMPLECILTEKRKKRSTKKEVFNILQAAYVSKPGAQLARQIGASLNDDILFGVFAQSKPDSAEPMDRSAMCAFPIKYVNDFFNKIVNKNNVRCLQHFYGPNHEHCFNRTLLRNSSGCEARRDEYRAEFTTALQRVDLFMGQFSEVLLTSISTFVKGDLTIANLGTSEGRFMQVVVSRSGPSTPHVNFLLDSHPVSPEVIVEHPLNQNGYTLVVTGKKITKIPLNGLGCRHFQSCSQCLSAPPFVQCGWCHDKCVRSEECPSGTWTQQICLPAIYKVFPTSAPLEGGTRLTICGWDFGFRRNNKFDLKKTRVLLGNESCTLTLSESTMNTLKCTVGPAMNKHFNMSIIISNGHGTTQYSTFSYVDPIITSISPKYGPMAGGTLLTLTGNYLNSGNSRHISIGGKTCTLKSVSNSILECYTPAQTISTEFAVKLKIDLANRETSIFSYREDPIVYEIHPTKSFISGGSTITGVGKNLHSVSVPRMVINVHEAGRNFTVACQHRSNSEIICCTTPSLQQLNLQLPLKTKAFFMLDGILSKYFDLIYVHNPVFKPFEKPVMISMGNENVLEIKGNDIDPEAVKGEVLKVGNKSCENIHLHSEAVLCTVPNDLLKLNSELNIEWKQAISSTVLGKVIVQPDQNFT
T6 sequence (P08581 25-932): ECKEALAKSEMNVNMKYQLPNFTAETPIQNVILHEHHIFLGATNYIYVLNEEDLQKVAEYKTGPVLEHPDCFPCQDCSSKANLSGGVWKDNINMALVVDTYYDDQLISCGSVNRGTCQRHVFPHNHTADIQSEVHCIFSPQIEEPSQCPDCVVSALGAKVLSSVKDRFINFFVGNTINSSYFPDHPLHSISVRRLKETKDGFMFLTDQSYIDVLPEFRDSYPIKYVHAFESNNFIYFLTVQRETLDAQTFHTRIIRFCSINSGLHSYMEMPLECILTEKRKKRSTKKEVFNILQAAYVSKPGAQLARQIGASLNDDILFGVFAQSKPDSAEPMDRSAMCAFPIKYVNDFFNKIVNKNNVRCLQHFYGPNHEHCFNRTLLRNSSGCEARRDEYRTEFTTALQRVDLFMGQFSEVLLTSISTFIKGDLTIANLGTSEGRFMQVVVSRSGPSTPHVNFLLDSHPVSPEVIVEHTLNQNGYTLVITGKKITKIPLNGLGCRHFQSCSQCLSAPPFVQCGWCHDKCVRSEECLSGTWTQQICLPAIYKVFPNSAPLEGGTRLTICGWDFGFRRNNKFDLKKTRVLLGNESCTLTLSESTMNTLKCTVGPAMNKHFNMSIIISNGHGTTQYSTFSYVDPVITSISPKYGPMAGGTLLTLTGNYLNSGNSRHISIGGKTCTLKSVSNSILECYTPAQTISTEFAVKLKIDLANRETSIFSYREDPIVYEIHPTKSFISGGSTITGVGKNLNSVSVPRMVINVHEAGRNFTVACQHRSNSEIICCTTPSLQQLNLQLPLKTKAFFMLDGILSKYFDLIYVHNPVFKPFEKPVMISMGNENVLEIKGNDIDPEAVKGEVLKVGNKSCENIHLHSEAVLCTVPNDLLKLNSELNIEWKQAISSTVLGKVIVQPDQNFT
Chain of Mouse cMET (recombinant) (P16056 25-931 limits assumed): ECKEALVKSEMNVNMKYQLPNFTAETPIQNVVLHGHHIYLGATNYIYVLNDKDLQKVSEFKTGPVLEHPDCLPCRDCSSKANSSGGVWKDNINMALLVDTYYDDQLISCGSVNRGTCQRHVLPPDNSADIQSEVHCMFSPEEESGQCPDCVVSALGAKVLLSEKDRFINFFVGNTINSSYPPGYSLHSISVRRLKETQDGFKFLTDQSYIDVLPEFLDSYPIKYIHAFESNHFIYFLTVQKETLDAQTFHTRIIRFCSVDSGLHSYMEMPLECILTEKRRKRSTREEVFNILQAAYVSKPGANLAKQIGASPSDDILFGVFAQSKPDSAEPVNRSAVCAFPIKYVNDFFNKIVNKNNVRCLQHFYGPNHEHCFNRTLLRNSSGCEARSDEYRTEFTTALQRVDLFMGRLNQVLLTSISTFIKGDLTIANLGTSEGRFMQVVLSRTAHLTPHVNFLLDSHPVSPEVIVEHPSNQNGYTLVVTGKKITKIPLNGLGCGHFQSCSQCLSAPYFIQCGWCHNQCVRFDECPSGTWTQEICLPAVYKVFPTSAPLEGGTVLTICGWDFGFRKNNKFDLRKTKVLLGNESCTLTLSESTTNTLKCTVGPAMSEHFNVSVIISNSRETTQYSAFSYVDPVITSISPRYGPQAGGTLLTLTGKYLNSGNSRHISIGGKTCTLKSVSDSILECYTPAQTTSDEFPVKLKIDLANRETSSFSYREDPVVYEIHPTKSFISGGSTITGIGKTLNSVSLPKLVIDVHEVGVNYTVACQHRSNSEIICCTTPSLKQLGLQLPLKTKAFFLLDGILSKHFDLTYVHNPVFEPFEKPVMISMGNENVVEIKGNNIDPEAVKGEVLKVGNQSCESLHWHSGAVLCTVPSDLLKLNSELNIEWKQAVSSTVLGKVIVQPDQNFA

B1: B09-57 IgG (antibody, V domains shown)
VH: QVQLVQSGAEVKKPGASVKVSCKASGYTFTDYYIHWVRQATGQGLEWMGWMNPNSGNTGYAQKFQGRVTMTRDTSISTAYMELSSLRSEDTAVYYCARGQGYTHSWGQGTMVTVSS
VL: DIQMTQSPSTLSASVGDRVTITCRASEGIYHWLAWYQQKPGKAPKLLIYKASSLASGVPSRFSGSGSGTEFTLTISSLQPDDFATYYCQQYSNYPPTFGGGTKLEIK
notes: also called B09-GL; anti-c-Met antibody clone B09-GL
Consider B1, for which the binding result with HER2 is “no binding (tested: 10 ug/ml)”; with HER3 it was “no binding (tested: 10 ug/ml)”; in [1], “no binding (tested: 10 ug/ml)”; in [2], “no binding (tested: 10 ug/ml)”; in the test with Mouse cMET (recombinant) it was “no binding (tested: 10 ug/ml)”; in test [5] it was “no binding (tested: 500 nM EGFR)”. Besides, the binding result with HER4 was “no binding (tested: 10 ug/ml)”. Further, the Kd (usually a measure of binding affinity in units of concentration) turned out to be 1.9 nM in test [3] and 1.6 nM in test [4]. The koff (in general, a measure of how fast the partners let go of each other) in [3] is 0.00194 s⁻¹; in [4], 0.000882 s⁻¹. The kon (usually the second-order rate constant of association) is 1.04e+06 M⁻¹ s⁻¹ in [3] and 563000 M⁻¹ s⁻¹ in [4].
